Laboratory results from the supplement of paper PMC10567573.
± gives the standard deviation.

Test: protein stability index of a GFP-peptide fusion (GPS, HEK-293T) (PSI 1-6); higher = more stable
Settings: c terminus: a fixed tail appended
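Note: 24-mer peptide tiles fused after GFP, lentivirally expressed, FACS-sorted into six equal bins by GFP/DsRed ratio, decoded by Illumina sequencing, PSI is the read-weighted mean bin number.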

Sequence	protein stability index (treatment: DMSO)	protein stability index (treatment: MLN4924 1 uM, 8 h)
EDLKGHVAETSGETIQGFWLLTKI [TPRG1]	2.37 ± 0.59	2.07 ± 0.3
EDVLLLNFEEMRALLDSLPPPVES [KLHL14]	3.34 ± 0.24	3.57 ± 0.41
EEDCAWSQELPPPDPGPSPEASHL [ZNF263]	5.44 ± 0.25	5.58 ± 0.25
EEGSANRRPEDQELESLSAIEAEL [CHGA]	5.59 ± 0.14	5.45 ± 0.095
EEHTTILRPSYTGLSSSSARFLSR [CDC14A]	3.57 ± 0.12	3.7 ± 0.19
EEIKFYELGEEAMEKFREDEGFIK [KCNA1]	4.71 ± 0.36	4.84 ± 0.14
EELEDSKALLYLPIAPEVEDPEEN [RBBP5]	5.5 ± 0.6	5.24 ± 0.42
EEVPEAYVDIHTGLSGSGVAFVCA [PYCR3]	2.76 ± 0.53	2.66 ± 0.43
EFGALMSNYSLPPPLPTYHVLLEG [TRIM29]	2.7 ± 0.98	2.15 ± 0.33
EFIQEIRRQLEACQRERAFSVKFE [OAS1]	2.29 ± 0.31	2.27 ± 0.56
EFKAAFDMFDADGGGDISVKELGT [TNNC2]	4.16 ± 0.13	4.63 ± 0.11
EFMKTLEKTGPQLTSRIKGDWIGL [DENND6A]	2.06 ± 0.23	2.23 ± 0.25
EGDVLDTLEALGYKGPLLEEQALT [FAM98B]	4.36 ± 0.34	4.35 ± 0.12
EGFLFVFGGQDENKQTLSSGEKYD [GAN]	3.11 ± 0.28	3.73 ± 0.64
EGKTKKGVLEAPDTQVNPVGSVSV [FBXO34]	5.08 ± 0.17	5.14 ± 0.11
EGMDRWIKKIEEHAPGVPKILVGN [RAB40A]	3.41 ± 0.18	3.21 ± 0.31
EGSRSSGSNRSGSDRRKEKDPKAG [DVL3]	5.38 ± 0.15	5.5 ± 0.2
EGYEFCHNRKVLTIFSASNYYEVG [PPEF2]	2.31 ± 0.44	2.05 ± 0.44
EGYQALYHAVVEPMLWNPSGTPKR [C22orf31]	2.39 ± 0.28	2.79 ± 0.61
EHYWEVRYEPDSKAFGVGVAYRSL [FSD1]	2.06 ± 0.29	2.25 ± 0.33
EIIPINVNNNYEHRHTSHLGHAVL [SPRY1]	2.34 ± 0.15	2.43 ± 0.3
EIKDLILPKISDPNFVKDLEEDLY [PI4K2A]	3.16 ± 0.5	3.12 ± 0.38

Sequence	protein stability index (treatment: DMSO)	protein stability index (treatment: MLN4924 1 uM, 8 h)
EILLDFVYTETVHVTVENVQELLP [KLHL12]	2.31 ± 0.59	2.4 ± 1.3
ELEKSGHGQAGQRQDPRPHGPQLP [ZBED2]	5.01 ± 0.25	5.28 ± 0.055
ELERCRQQAGLLVTGEKEEPSRSA [PPEF2]	4.95 ± 0.27	5.11 ± 0.86
ELFKELSINVMKQLIGSSNLFVMQ [GMCL1]	–	3.95 ± 0.43
ELLTDKSCQSFISWTGDGWEFKLS [ETS1]	2.24 ± 0.28	2.55 ± 0.37
EMHTSRDHSSQSEEEVVEGEKEVE [BNIP3L]	5.682 ± 0.045	5.59 ± 0.16
EMSLAEELNHGRQGENQEHLVIAE [FATE1]	5.44 ± 0.12	5.2 ± 0.24
EMTTTDDLDFKHHNYKEMRQLMKV [CPXM2]	3.75 ± 0.099	3.53 ± 0.18
ENIAWVKSYNICFELEDSNEIFTQ [PDS5B]	2.46 ± 0.61	2.53 ± 0.28
ENVDEASAAPGHPQDGSYPRQADH [KCNA1]	5.55 ± 0.25	5.47 ± 0.26
ENVSVEMLLRKFAESKGTGREKPG [FCHO1]	3.9 ± 0.086	4.23 ± 0.26
EPNRLETGEAGEELDLRLRLAQPS [RTN2]	5.17 ± 0.13	5.28 ± 0.17
EQEHAAIQDKLFQVAKREREAATK [CHCHD6]	5.38 ± 0.36	5.48 ± 0.16
EQERRERREQAAAAPFPSPAPASP [TFE3]	5.52 ± 0.18	5.48 ± 0.14
EQGAIPRLVQLLVRAHQDTQRRTS [CTNNB1]	3.18 ± 0.19	3.26 ± 0.22
EQQRKLETYLQNHFAEEERSKYDY [TENT5C]	4.35 ± 0.16	4.47 ± 0.099
EQTFSPAKSLSFRKGELVTASKAI [ADD1]	3.99 ± 0.17	4.14 ± 0.28
EQVNFCESSNDFGPYEGGGPVAGL [ZBTB22]	4.3 ± 0.16	4.32 ± 0.25
ERRGGLPPLPLHPGGDQGGPPVGP [WAS]	4.95 ± 0.4	5.22 ± 0.2
ESETRKAAKRMRLEIYQSSQDEPI [NOL4L]	4.58 ± 0.071	4.65 ± 0.24
ETAIADAEQRGDNALKDARAKLDE [KRT71]	5.57 ± 0.21	5.41 ± 0.54
ETIEGAPPLWAASAAGHLKVVQSL [FEM1C]	3.11 ± 0.2	3.04 ± 0.46

Sequence	protein stability index (treatment: DMSO)	protein stability index (treatment: MLN4924 1 uM, 8 h)
EVENQFILRLPLEHACTVRNLARS [TAF7L]	2.66 ± 0.12	2.51 ± 0.24
EVGSMKIQSGAWVCYQYPGYRGYQ [CRYBA1]	2.08 ± 0.24	2.32 ± 0.11
EYMETGSLEKLLASEPLPWDLRFR [RIPK4]	2.76 ± 0.3	3.27 ± 0.6
EYQCQNLYQLEGNNQITCRNGQWS [CFHR2]	3.09 ± 0.14	3.03 ± 0.21
FAQPMMRPPFGAAAVPGTQLSPSP [SNAP91]	3.43 ± 0.31	3.71 ± 0.35
FCASTRLPPTPLLLFPEEEATNGR [AUP1]	3.03 ± 0.59	3.79 ± 0.31
FDHLQNRLIATKNPEEIRGGGLLK [TENT5C]	3.73 ± 0.26	4.09 ± 0.36
FDKEWVAKQTKRMLDMKVNPIQGL [COX4I1]	2.46 ± 0.44	2.78 ± 0.41
FDKLALRFHGRLLFLKDVLGDEIC [KCTD13]	2.48 ± 0.41	2.34 ± 0.18
FDNPQVRFFLGDLCSRQDLYPALK [NSDHL]	2.35 ± 0.29	2.25 ± 0.26
FDSDWYTSRNLIGGADIIVIKYNV [RHOBTB3]	2.73 ± 0.52	3.12 ± 0.4
FDVFSPKQDLVPGSPDDSHPKDGP [DLC1]	5.43 ± 0.36	5.43 ± 0.33
FFAFEHSEEYQQAQHKFLVAVESM [TCF25]	3.59 ± 0.35	3.56 ± 0.4
FFIRTSDSFDKFDFCEPSFVTGNC [PCMTD2]	2.52 ± 0.33	2.42 ± 0.26
FGRYLEHLEVKFMNPYNAVLTKKF [FBXO39]	2.24 ± 0.45	2.04 ± 0.16
FKAEVDPLSDKGTTPLQLAIIRER [ASB7]	3.82 ± 0.34	3.85 ± 0.25
FKNRLVNIMPYESTRVCLQPIRGV [PTPRD]	2.35 ± 0.35	2.33 ± 0.47
FLFVLGGEDQWNPNGKHSTNFVSR [KLHL14]	2.11 ± 0.15	2.27 ± 0.41
FLLAFGLMIIVCIDQWKNKIWPEI [RETREG3]	2.94 ± 0.4	3.09 ± 0.35
FLLCARSLLRGFLLQNEFVGFMWR [MCOLN1]	2.55 ± 0.34	2.39 ± 0.79
FLMLAVSLTVPLLGAMMLLESPID [APMAP]	3.52 ± 0.26	3.64 ± 0.37
